{"source": "paper PMC3903622", "about": "“Kinetics of Phosphomevalonate Kinase from Saccharomyces cerevisiae” (PLoS ONE, 2014)", "proteins": {"B1": {"name": "phosphomevalonate kinase (PMK) from S. cerevisiae; PMK-His (Saccharomyces cerevisiae S288C) (protein)", "chain": "MSELRAFSAPGKALLAGGYLVLDTKYEAFVVGLSARMHAVAHPYGSLQGSDKFEVRVKSKQFKDGEWLYHISPKSGFIPVSIGGSKNPFIEKVIANVFSYFKPNMDDYCNRNLFVIDIFSDDAYHSQEDSVTEHRGNRRLSFHSHRIEEVPKTGLGSSAGLVTVLTTALASFFVSDLENNVDKYREVIHNLAQVAHCQAQGKIGSGFDVAAAAYGSIRYRRFPPALISNLPDIGSATYGSKLAHLVDEEDWNITIKSNHLPSGLTLWMGDIKNGSETVKLVQKVKNWYDSHMPESLKIYTELDHANSRFMDGLSKLDRLHETHDDYSDQIFESLERNDCTCQKYPEITEVRDAVATIRRSFRKITKESGADIEPPVQTSLLDDCQTLKGVLTCLIPGAGGYDAIAVITKQDVDLRAQTANDKRFSKVQWLDVTQADWGVRKEKDPETYLDK", "notes": "E. coli codon-optimized gene in pET-52b+, C-terminal 6xHis tag (removal not mentioned), expressed in E. coli BL21(DE3), Ni-NTA purified"}}, "key": {"purified protein [1]": {"substrate": "Nc1ncnc2c1ncn2[C@@H]1O[C@H](COP(=O)(O)OP(=O)(O)OP(=O)(O)O)[C@@H](O)[C@H]1O", "experiment": "purified protein", "assay_type": "biochemical, Saccharomyces cerevisiae", "conditions": "co-substrate mevalonate-5-phosphate (0.2–10.0 mM range), 10 mM MgCl2, 100 mM KCl, 200 mM Tris pH 7.2, 30°C"}, "purified protein [2]": {"substrate": "C[C@@](O)(CCOP(=O)(O)O)CC(=O)O", "experiment": "purified protein", "assay_type": "biochemical, Saccharomyces cerevisiae", "conditions": "co-substrate ATP (0.1–8.0 mM range), 10 mM MgCl2, 100 mM KCl, 200 mM Tris pH 7.2, 30°C"}}, "data": [{"protein": "B1", "values": [{"measurement": "Km", "setting": "purified protein [1]", "result": 98.3, "unit": "µM"}, {"measurement": "Km", "setting": "purified protein [2]", "result": 885, "unit": "µM"}]}]}
